One molecule from publication PMC11514473, “The transition state for coupled folding and binding of a disordered DNA binding domain resembles the unbound state” (Nucleic Acids Research, 2024) can be followed below.

One may read the Kd as a measure of binding affinity in units of concentration.

For series [1], the target named is T1, 285bZIP K309A (human, UniProt P16220-1 285-339, C300S;C310S;C337S;K309A).
T1 sequence: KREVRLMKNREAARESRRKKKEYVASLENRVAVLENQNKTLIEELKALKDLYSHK
As to the kind of experiment: stopped-flow fluorescence (koff/kon); 10 mM Mg2+; 10 mM MES pH 6.5, 150 mM NaCl, 10 mM MgCl2, 0.05% Tween-20, 25 C; NMR: 10 mM Tris-d11, 150 mM NaCl, 10 mM MgCl2, 1 mM NaN3, 5% D2O (NOE at 25 C). To be noted: protein: recombinant; tags: extra N-terminal Gly; chain copies: 2; label: 5' Alexa Fluor 488; hairpin (self-annealing, 11 bp stem, CCCC loop).

Series [2] deals with T2, 285bZIP E295A/E299A (human, UniProt P16220-1 285-339, C300S;C310S;C337S;E295A;E299A).
T2 sequence: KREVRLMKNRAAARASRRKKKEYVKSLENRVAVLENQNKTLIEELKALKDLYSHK
The description is as above. To be noted: protein: recombinant; tags: extra N-terminal Gly; chain copies: 2; label: 5' Alexa Fluor 488; hairpin (self-annealing, 11 bp stem, CCCC loop).

Series [3] deals with T3, 285bZIP R302A (human, UniProt P16220-1 285-339, C300S;C310S;C337S;R302A).
T3 sequence: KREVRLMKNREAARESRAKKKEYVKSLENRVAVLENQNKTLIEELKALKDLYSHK
The description is as above. To be noted: protein: recombinant; tags: extra N-terminal Gly; chain copies: 2; label: 5' Alexa Fluor 488; hairpin (self-annealing, 11 bp stem, CCCC loop).

Series [4] addresses T4, 285bZIP E306G (human, UniProt P16220-1 285-339, C300S;C310S;C337S;E306G).
T4 sequence: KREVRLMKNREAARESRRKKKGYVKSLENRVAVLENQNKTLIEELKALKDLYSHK
Described as above. To be noted: protein: recombinant; tags: extra N-terminal Gly; chain copies: 2; label: 5' Alexa Fluor 488; hairpin (self-annealing, 11 bp stem, CCCC loop).

Series [5] deals with T5, 285bZIP E295A (human, UniProt P16220-1 285-339, C300S;C310S;C337S;E295A).
T5 sequence: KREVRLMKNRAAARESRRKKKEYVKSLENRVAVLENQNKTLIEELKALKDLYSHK
Described as above. To be noted: protein: recombinant; tags: extra N-terminal Gly; chain copies: 2; label: 5' Alexa Fluor 488; hairpin (self-annealing, 11 bp stem, CCCC loop).

Series [6] has as its target T6, 285bZIP V288G (human, UniProt P16220-1 285-339, C300S;C310S;C337S;V288G).
T6 sequence: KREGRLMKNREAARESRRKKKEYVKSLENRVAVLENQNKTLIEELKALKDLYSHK
The description is as above. To be noted: protein: recombinant; tags: extra N-terminal Gly; chain copies: 2; label: 5' Alexa Fluor 488; hairpin (self-annealing, 11 bp stem, CCCC loop).

Series [7] addresses T7, 285bZIP E299G/E306G (human, UniProt P16220-1 285-339, C300S;C310S;C337S;E299G;E306G).
T7 sequence: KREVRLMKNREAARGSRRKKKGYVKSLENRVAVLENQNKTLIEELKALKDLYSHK
The description is as above. To be noted: protein: recombinant; tags: extra N-terminal Gly; chain copies: 2; label: 5' Alexa Fluor 488; hairpin (self-annealing, 11 bp stem, CCCC loop).

In series [8] the target is T8, 285bZIP V288A (human, UniProt P16220-1 285-339, C300S;C310S;C337S;V288A).
T8 sequence: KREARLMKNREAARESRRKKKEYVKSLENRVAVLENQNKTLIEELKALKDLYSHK
Described as above. To be noted: protein: recombinant; tags: extra N-terminal Gly; chain copies: 2; label: 5' Alexa Fluor 488; hairpin (self-annealing, 11 bp stem, CCCC loop).

Series [9] concerns the target T9, CREB 285bZIP wild type (pseudo-WT, Cys to Ser) (human, UniProt P16220-1 285-339, C300S;C310S;C337S).
T9 sequence: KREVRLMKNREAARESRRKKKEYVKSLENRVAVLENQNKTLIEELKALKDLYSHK
Kind of series: stopped-flow fluorescence (koff/kon); koff 2.44 s-1 averaged over competitor concentrations; 10 mM Mg2+; 10 mM MES pH 6.5, 150 mM NaCl, 10 mM MgCl2, 0.05% Tween-20, 25 C; NMR: 10 mM Tris-d11, 150 mM NaCl, 10 mM MgCl2, 1 mM NaN3, 5% D2O (NOE at 25 C). To be noted: protein: recombinant; tags: extra N-terminal Gly after TEV cleavage; His6-GB1 removed; chain copies: 2; label: 5' Alexa Fluor 488; hairpin (self-annealing, 11 bp stem, CCCC loop).

As to CCTGACGTCAGCCCCCTGACGTCAGG (structured_DNA) [AlexaFluor488-CREh], the Kd turned out to be 2.12 ± 0.08 nM in [1]; 0.102 ± 0.008 nM in [2]; 13.9 ± 1.8 nM in series [3]; 3.9 ± 0.2 nM in series [4]; 0.239 ± 0.016 nM in series [5]; 2.77 ± 0.16 nM in series [6]. Besides, the Kd in series [7] amounted to 54 ± 4 nM; in series [8], 0.46 ± 0.05 nM; in [9], 0.36 ± 0.04 nM.
